Patent US5824484, “RXR homodimer formation” (La Jolla Cancer Research Foundation)

What was measured:
RXR alpha homodimer [1] = molecular target: T1, RXR alpha homodimer (UniProt P19793 P19793:1-462); test: EMSA; with 9-cis-RA; conditions: chain copies: 2 (stated); label: 32P
Protocol: (§1) (a) In vitro synthesized RXRα was incubated either with (+) or without (−) indicated hormones (10^-7M 9-cis-RA; 10^-6M RA; 10^-6M T_3) in the presence or absence of in vitro synthesized TRα or RARβ for 30 min at room temperature. After this preincubation, the reaction mixtures were analyzed by gel retardation assay using ^32P-labeled TREpal as probe. Lane 1 represents the nonspecific binding of unprogrammed reticulocyte lysate. Open triangles indicate the nonspecific complex observed with unprogrammed reticulocyte lysate. Solid triangles indicate the specific TRα-RXRα heterodimer binding. Arrows indicate specific RXRα homodimer binding. The RXRα/RARβ heterodimer migrates at the same position as the RXRα homodimer. For comparison, the effect of 9-cis-RA on RARβ binding is shown.
(§2) FIGS. 4a and 4c show the response element specific binding of RXR homodimer. The effect of 9-cis-RA on RXR binding on RA specific response elements (a), T_3 specific response elements (b), or estrogen specific response element (c) was analyzed by gel retardation assays as described in FIG. 1a. For comparison, the binding of RXR/RAR heterodimer (a), RXR/TR heterodimer (b) or estrogen receptor (c) is shown. Open triangles indicate the nonspecific binding of unprogrammed reticulocyte lysate. Solid triangle indicates the RAR/RXR heterodimer complex (a), TR/RXR heterodimer complex (b) or ER complexes (c). […]

RXR alpha homodimer [2] = molecular target: T1, RXR alpha homodimer; test: EMSA; with or without 9-cis-RA; conditions: chain copies: 2 (stated); label: 32P
Protocol: as §1, §2

[3] = molecular target: TR alpha/RXR alpha heterodimer (UniProt P10827-2;P19793 P10827-2:1-410,P19793:1-462); test: EMSA; conditions: label: 32P
Protocol: as §1, §2

RXR alpha homodimer [4] = molecular target: T1, RXR alpha homodimer; test: EMSA; with 9-cis-RA (effect from 1e-9 M, optimal 1e-8 M); little binding without ligand; also induced by SR11217 and SR11237; conditions: chain copies: 2 (stated); label: 32P
Protocol: as §1

RAR beta = molecular target: T2, RAR beta (UniProt P10826-2 P10826-2:1-448); test: EMSA; RAR homodimer not induced by 9-cis-RA; conditions: label: 32P
T2 sequence: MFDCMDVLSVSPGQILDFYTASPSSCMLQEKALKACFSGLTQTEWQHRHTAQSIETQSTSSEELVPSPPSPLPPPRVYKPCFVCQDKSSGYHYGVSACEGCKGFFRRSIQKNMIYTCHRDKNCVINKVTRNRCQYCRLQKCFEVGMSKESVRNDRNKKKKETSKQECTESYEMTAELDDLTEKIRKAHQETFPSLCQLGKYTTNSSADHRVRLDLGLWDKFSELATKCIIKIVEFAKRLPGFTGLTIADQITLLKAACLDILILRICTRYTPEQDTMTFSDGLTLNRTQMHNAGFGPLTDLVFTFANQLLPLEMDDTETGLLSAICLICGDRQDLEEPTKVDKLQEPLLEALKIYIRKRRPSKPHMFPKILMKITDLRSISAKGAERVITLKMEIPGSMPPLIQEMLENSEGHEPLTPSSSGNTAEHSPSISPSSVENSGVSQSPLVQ
Protocol: as §1
(§3) (b) The effect of 9-cis-RA on RXR homodimer binding of ApoAI-RARE or CRBPII-RARE was analyzed essentially as described in FIG. 1a. Lane 1 represents the nonspecific binding of unprogrammed reticulocyte lysate, which are indicated by the open triangles. Solid triangles indicate the RAR/RXR heterodimer complex. Arrows indicate the specific RXR binding complex.
(§4) Gel retardation assays using in vitro synthesized receptor protein are described in the FIG. 1 legend. The following oligonucleotides and their complements were used as probes in FIGS. 3 and 4.

RXR alpha homodimer [5] = molecular target: T1, RXR alpha homodimer; test: EMSA; strong with 9-cis-RA, lesser with 1e-6 M RA; conditions: chain copies: 2 (stated); label: 32P
Protocol: as §1, §3, §4

Estrogen receptor = Estrogen receptor (UniProt P03372 P03372:1-595); test: EMSA; ER complex shown for comparison; conditions: chain copies: 2 (inferred); label: 32P
Protocol: as §1, §2

RXR alpha homodimer [6] = molecular target: T1, RXR alpha homodimer; test: EMSA; with 9-cis-RA; complex slower than heterodimer; reduced when RAR present; conditions: chain copies: 2 (stated); label: 32P
Protocol: as §1, §3, §4

T1 sequence (P19793 whole entry, one chain of several): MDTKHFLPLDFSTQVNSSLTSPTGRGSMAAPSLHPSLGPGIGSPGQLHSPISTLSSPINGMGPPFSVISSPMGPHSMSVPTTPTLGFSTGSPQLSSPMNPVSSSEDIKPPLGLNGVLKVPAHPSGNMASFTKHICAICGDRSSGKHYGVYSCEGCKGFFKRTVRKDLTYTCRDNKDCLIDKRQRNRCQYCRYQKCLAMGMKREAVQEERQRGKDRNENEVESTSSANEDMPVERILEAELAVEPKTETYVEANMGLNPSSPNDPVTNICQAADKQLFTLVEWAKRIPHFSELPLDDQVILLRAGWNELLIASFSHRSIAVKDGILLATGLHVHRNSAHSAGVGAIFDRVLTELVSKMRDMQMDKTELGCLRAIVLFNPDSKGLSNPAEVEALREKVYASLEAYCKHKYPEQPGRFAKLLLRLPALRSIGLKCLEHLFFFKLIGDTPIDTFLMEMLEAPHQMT
Chain of TR alpha/RXR alpha heterodimer (P10827 other isoform, or with tags, fused parts or gaps, chain 1 of 2): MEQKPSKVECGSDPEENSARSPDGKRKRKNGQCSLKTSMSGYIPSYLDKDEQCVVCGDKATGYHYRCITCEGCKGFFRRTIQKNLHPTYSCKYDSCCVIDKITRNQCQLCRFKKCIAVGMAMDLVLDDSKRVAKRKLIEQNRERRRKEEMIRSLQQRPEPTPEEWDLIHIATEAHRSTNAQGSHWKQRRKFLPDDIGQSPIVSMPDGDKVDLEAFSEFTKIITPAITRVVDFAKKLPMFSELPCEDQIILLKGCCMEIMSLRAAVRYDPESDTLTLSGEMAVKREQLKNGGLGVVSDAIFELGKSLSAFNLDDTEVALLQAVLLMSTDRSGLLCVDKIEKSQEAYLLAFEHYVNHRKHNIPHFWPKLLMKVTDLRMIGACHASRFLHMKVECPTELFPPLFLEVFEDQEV
Chain of TR alpha/RXR alpha heterodimer (P19793 whole entry, chain 2 of 2): as the sequence (P19793 whole entry, one chain of several) above
Chain of Estrogen receptor (P03372 whole entry, one chain of several): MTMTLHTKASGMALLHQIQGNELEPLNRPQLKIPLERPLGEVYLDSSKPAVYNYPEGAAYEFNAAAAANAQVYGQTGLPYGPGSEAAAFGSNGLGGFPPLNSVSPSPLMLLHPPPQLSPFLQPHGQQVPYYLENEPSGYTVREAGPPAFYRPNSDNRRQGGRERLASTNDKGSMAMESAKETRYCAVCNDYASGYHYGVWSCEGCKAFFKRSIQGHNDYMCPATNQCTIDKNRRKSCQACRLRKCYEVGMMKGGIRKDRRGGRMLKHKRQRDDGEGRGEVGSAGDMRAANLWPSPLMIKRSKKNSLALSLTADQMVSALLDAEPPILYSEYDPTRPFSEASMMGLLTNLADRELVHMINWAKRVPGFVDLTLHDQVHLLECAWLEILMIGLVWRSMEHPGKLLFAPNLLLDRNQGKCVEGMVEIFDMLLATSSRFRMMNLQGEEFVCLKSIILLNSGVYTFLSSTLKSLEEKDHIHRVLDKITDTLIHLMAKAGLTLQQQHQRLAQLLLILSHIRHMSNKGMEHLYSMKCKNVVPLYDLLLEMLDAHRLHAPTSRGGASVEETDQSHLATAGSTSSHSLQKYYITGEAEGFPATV

B1: DR-5 (dsDNA)
DNA 1: GATCTCAGGTCATCCTCAGGTCAGATC
DNA 2: GATCTGACCTGAGGATGACCTGAGATC
- binding result (RXR alpha homodimer [1]): no binding

B2: MHC-TRE (dsDNA)
DNA 1: GATCCTGGAGGTGACAGGAGGACAGCGATC
DNA 2: GATCGCTGTCCTCCTGTCACCTCCAGGATC
- binding result (RXR alpha homodimer [2]): no binding
- binding result [3]: binds

B3: TREpal (dsDNA)
DNA 1: GATCTCAGGTCATGACCTGAGATC
DNA 2: GATCTCAGGTCATGACCTGAGATC
- binding result (RXR alpha homodimer [4]): binds

B4: ApoAI-RARE (dsDNA)
DNA 1: GATCAGGGCAGGGGTCAAGGGTTCAGTGATC
DNA 2: GATCACTGAACCCTTGACCCCTGCCCTGATC
- binding result (RAR beta): no binding
- binding result (RXR alpha homodimer [5]): binds

B5: CRBPI-RARE (dsDNA)
DNA 1: GATCCAGGTCAAAAAGTCAGGATC
DNA 2: GATCCTGACTTTTTGACCTGGATC
- binding result (RXR alpha homodimer [1]): no binding

B6: ME-TRE (dsDNA)
DNA 1: GATCCAGGACGTTGGGGTTAGGGGAGGACAGTGGGATC
DNA 2: GATCCCACTGTCCTCCCCTAACCCCAACGTCCTGGATC
- binding result (RXR alpha homodimer [2]): no binding
- binding result [3]: binds

B7: ERE (dsDNA)
DNA 1: GATCTCAGGTCACTGTGACCTGAGATC
DNA 2: GATCTCAGGTCACAGTGACCTGAGATC
- binding result (Estrogen receptor): binds

B8: CRBPII-RARE (dsDNA)
DNA 1: GATCCAGGTCACAGGTCACAGGTCACAGTTCAAGATC
DNA 2: GATCTTGAACTGTGACCTGTGACCTGTGACCTGGATC
- binding result (RXR alpha homodimer [6]): binds
